# Article PMC8897395 (Nature Communications, 2022)
# B1: MARV nucleoprotein (1–395), wild type (domain or fragment)
# chain: MDLHSLLELGTKPTAPHVRNKKVILFDTNHQVSICNQIIDAINSGIDLGDLLEGGLLTLCVEHYYNSDKDKFNTSPVAKYLRDAGYEFDVIKNADATRFLDVSPNEPHYSPLILALKTLESTESQRGRIGLFLSFCSLFLPKLVVGDRASIEKALRQVTVHQEQGIVTYPNHWLTTGHMKVIFGILRSSFILKFVLIHQGVNLVTGHDAYDSIISNSVGQTRFSGLLIVKTVLEFILQKTDSGVTLHPLVRTSKVKNEVASFKQALSNLARHGEYAPFARVLNLSGINNLEHGLYPQLSAIALGVATAHGSTLAGVNVGEQYQQLREAAHDAEVKLQRRHEHQEIQAIAEDDEERKILEQFHLQKTEITHSQTLAVLSQKREKLARLAAEIENNI
# Target: the molecule itself
# Assay: […], in Tris-HCl buffer (10 mM Tris-HCl pH 8.0, 150 mM NaCl, 1 mM EDTA); […]
protein,measurement,value
B1,binding result,binds
